Experimental data published in article PMC314469, “Protein Interaction Networks by Proteome Peptide Scanning” (PLoS Biology, 2004).

T1: Myo5 SH3 (MYO5_YEAST), Q04439
T1 chain: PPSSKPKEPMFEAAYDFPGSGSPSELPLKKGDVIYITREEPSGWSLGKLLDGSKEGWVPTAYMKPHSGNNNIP

T2: Rvs167 SH3 (RV167_YEAST), P39743
T2 chain: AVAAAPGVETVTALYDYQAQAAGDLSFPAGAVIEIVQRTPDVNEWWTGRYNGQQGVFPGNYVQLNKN

T3: Boi1 SH3 (BOI1_YEAST), P38041
T3 chain: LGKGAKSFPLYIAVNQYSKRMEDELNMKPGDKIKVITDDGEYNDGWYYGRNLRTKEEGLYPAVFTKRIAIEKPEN

T4: Boi2 SH3 (BOI2_YEAST), P39969
T4 chain: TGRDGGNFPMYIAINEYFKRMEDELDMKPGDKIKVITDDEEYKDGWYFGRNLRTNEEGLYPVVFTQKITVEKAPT

T5: Yfr024 SH3 (LSB3_YEAST), P43603
T5 chain: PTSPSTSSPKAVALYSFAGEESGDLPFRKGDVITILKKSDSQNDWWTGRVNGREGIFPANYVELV

T6: Yhr016c SH3 (YSC84_YEAST), P32793
T6 chain: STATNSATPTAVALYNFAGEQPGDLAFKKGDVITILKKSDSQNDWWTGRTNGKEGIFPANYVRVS


Target: T1, Myo5 SH3 (MYO5_YEAST), Q04439
Assay: SPOT array

Binder | normalised SPOT signal, Boehringer light units (BLU); mean over the file's lines of this peptide
VKRPRLNPFLPRDE [YGL097W 70-83] | 1190
VEKRKFTPIEPSLL [YPL242C 332-345] | 171
VLFMKGTPEFPKSG [YPL059W 48-61] | 213
VFYHRPAPKPPVTK [YDL028C 400-413] | 9050
VIIGKTTPISPDEE [YOR151C 910-923] | 54
VHFYKSLPQGPAPA [YDR377W 34-47] | 510
VLGPKYDPKSPEEH [YNL163C 601-614] | 157
VKATKWPPKLPEIQ [YMR239C 193-206] | 57.4
VKKEKKPPKIPKKV [YPR104C 435-448] | 534
VDSFKYEPLAPGND [YLR335W 665-678] | 134
VEMKRKKPVRPVDI [YDR436W 385-398] | 472
VHVLKYAPDEPNSL [YDR301W 1194-1207] | 191
VEVDKKVPVLPMVA [YMR108W 643-656] | 130
VFVEKSKPTYPGTE [YOL155C 384-397] | 96.4

Target: T2, Rvs167 SH3 (RV167_YEAST), P39743
Assay: SPOT array

Binder | normalised SPOT signal, Boehringer light units (BLU); mean over the file's lines of this peptide
VKRPRLNPFLPRDE [YGL097W 70-83] | 4070
VEKRKFTPIEPSLL [YPL242C 332-345] | 222
VLFMKGTPEFPKSG [YPL059W 48-61] | 267
VFYHRPAPKPPVTK [YDL028C 400-413] | 90.2
VIIGKTTPISPDEE [YOR151C 910-923] | 32.9
VHFYKSLPQGPAPA [YDR377W 34-47] | 25.6
VLGPKYDPKSPEEH [YNL163C 601-614] | 12.7
VKATKWPPKLPEIQ [YMR239C 193-206] | 9.9
VKKEKKPPKIPKKV [YPR104C 435-448] | 71.6
VDSFKYEPLAPGND [YLR335W 665-678] | 35.2
VEMKRKKPVRPVDI [YDR436W 385-398] | 64
VHVLKYAPDEPNSL [YDR301W 1194-1207] | 34.4
VEVDKKVPVLPMVA [YMR108W 643-656] | 180
VFVEKSKPTYPGTE [YOL155C 384-397] | 64.7

Target: Sho1 SH3 (SHO1_YEAST), P40073
Assay: SPOT array

Sequence of Sho1 SH3 (SHO1_YEAST), P40073 (P40073 295-366): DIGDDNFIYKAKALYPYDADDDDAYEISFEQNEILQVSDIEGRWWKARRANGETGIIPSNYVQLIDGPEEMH

Binder | normalised SPOT signal, Boehringer light units (BLU); mean over the file's lines of this peptide
VKRPRLNPFLPRDE [YGL097W 70-83] | 119
VEKRKFTPIEPSLL [YPL242C 332-345] | 35.6
VLFMKGTPEFPKSG [YPL059W 48-61] | 51.5
VFYHRPAPKPPVTK [YDL028C 400-413] | 267
VIIGKTTPISPDEE [YOR151C 910-923] | 36.1
VHFYKSLPQGPAPA [YDR377W 34-47] | 5350
VLGPKYDPKSPEEH [YNL163C 601-614] | 45.5
VKATKWPPKLPEIQ [YMR239C 193-206] | 25.7
VKKEKKPPKIPKKV [YPR104C 435-448] | 71.6
VDSFKYEPLAPGND [YLR335W 665-678] | 22.1
VEMKRKKPVRPVDI [YDR436W 385-398] | 66.9
VHVLKYAPDEPNSL [YDR301W 1194-1207] | 19.6
VEVDKKVPVLPMVA [YMR108W 643-656] | 30.9
VFVEKSKPTYPGTE [YOL155C 384-397] | 81

Target: T3, Boi1 SH3 (BOI1_YEAST), P38041
Assay: SPOT array

Binder | normalised SPOT signal, Boehringer light units (BLU); mean over the file's lines of this peptide
VKRPRLNPFLPRDE [YGL097W 70-83] | 135000
VEKRKFTPIEPSLL [YPL242C 332-345] | 594
VLFMKGTPEFPKSG [YPL059W 48-61] | 151
VFYHRPAPKPPVTK [YDL028C 400-413] | 879
VIIGKTTPISPDEE [YOR151C 910-923] | 0
VHFYKSLPQGPAPA [YDR377W 34-47] | 49.8
VLGPKYDPKSPEEH [YNL163C 601-614] | 28.8
VKATKWPPKLPEIQ [YMR239C 193-206] | 170
VKKEKKPPKIPKKV [YPR104C 435-448] | 1300
VDSFKYEPLAPGND [YLR335W 665-678] | 0
VEMKRKKPVRPVDI [YDR436W 385-398] | 1610
VHVLKYAPDEPNSL [YDR301W 1194-1207] | 104
VEVDKKVPVLPMVA [YMR108W 643-656] | 107
VFVEKSKPTYPGTE [YOL155C 384-397] | 51.6

Target: T4, Boi2 SH3 (BOI2_YEAST), P39969
Assay: SPOT array

Binder | normalised SPOT signal, Boehringer light units (BLU); mean over the file's lines of this peptide
VKRPRLNPFLPRDE [YGL097W 70-83] | 2400
VEKRKFTPIEPSLL [YPL242C 332-345] | 77.3
VLFMKGTPEFPKSG [YPL059W 48-61] | 108
VFYHRPAPKPPVTK [YDL028C 400-413] | 29.2
VIIGKTTPISPDEE [YOR151C 910-923] | 19.8
VHFYKSLPQGPAPA [YDR377W 34-47] | 44.6
VLGPKYDPKSPEEH [YNL163C 601-614] | 1.9
VKATKWPPKLPEIQ [YMR239C 193-206] | 0.8
VKKEKKPPKIPKKV [YPR104C 435-448] | 8.9
VDSFKYEPLAPGND [YLR335W 665-678] | 13.5
VEMKRKKPVRPVDI [YDR436W 385-398] | 48.2
VHVLKYAPDEPNSL [YDR301W 1194-1207] | 29.5
VEVDKKVPVLPMVA [YMR108W 643-656] | 31.8
VFVEKSKPTYPGTE [YOL155C 384-397] | 19.2

Target: T5, Yfr024 SH3 (LSB3_YEAST), P43603
Assay: SPOT array

Binder | normalised SPOT signal, Boehringer light units (BLU); mean over the file's lines of this peptide
VKRPRLNPFLPRDE [YGL097W 70-83] | 2420
VEKRKFTPIEPSLL [YPL242C 332-345] | 179
VLFMKGTPEFPKSG [YPL059W 48-61] | 666
VFYHRPAPKPPVTK [YDL028C 400-413] | 156
VIIGKTTPISPDEE [YOR151C 910-923] | 0
VHFYKSLPQGPAPA [YDR377W 34-47] | 90.7
VLGPKYDPKSPEEH [YNL163C 601-614] | -0
VKATKWPPKLPEIQ [YMR239C 193-206] | 43.6
VKKEKKPPKIPKKV [YPR104C 435-448] | 782
VDSFKYEPLAPGND [YLR335W 665-678] | 0
VEMKRKKPVRPVDI [YDR436W 385-398] | 2590
VHVLKYAPDEPNSL [YDR301W 1194-1207] | 3.3
VEVDKKVPVLPMVA [YMR108W 643-656] | 98.7
VFVEKSKPTYPGTE [YOL155C 384-397] | 0

Target: T6, Yhr016c SH3 (YSC84_YEAST), P32793
Assay: SPOT array

Binder | normalised SPOT signal, Boehringer light units (BLU); mean over the file's lines of this peptide
VKRPRLNPFLPRDE [YGL097W 70-83] | 348
VEKRKFTPIEPSLL [YPL242C 332-345] | 71.2
VLFMKGTPEFPKSG [YPL059W 48-61] | 128
VFYHRPAPKPPVTK [YDL028C 400-413] | 95
VIIGKTTPISPDEE [YOR151C 910-923] | 6.3
VHFYKSLPQGPAPA [YDR377W 34-47] | 21.8
VLGPKYDPKSPEEH [YNL163C 601-614] | 22.7
VKATKWPPKLPEIQ [YMR239C 193-206] | 49.9
VKKEKKPPKIPKKV [YPR104C 435-448] | 32.9
VDSFKYEPLAPGND [YLR335W 665-678] | 15.2
VEMKRKKPVRPVDI [YDR436W 385-398] | 152
VHVLKYAPDEPNSL [YDR301W 1194-1207] | 25.5
VEVDKKVPVLPMVA [YMR108W 643-656] | 43.3
VFVEKSKPTYPGTE [YOL155C 384-397] | 22.1
